Test results published in patent US10556936B2, “Immunogenic proteins and fragments thereof from allergenic mites” (ALK-ABELLÓ A/S, priority 2016, dated 2020).

B1: A020: house dust mite protein; SEQ ID NO: 15 (Der f), 16 (Der p); Blo t SEQ ID NO: 316 printed as A0019 (protein)
chain: MSKPIFYYHPFSGPCRTVSTVAKILNVDMEMKKLDLLTKEHLNPEFLKVNPFHKVPTFVDSDGFVVDESRVIAMYLVESRKPDSFLYPKNDLKKRIQIDRWLHYDINLSTTISAPMFCVFRGHQVQDYQVEQGKETLKTLDGVMQSFEGKFLTGADQFTLADIAMYFSLNTMEVYPKYFKFDDYPNLKSWYHRVAEALKQYDTEGTIPKAIETMKQFIQQRAAEAEKH
B2: A017: house dust mite protein; SEQ ID NO: 21 (Der f), 25 (Der p), 313 (Blo t) (protein)
chain: MSSSSGKKYDFSGKVALVTGSSSGIGAAIALQFAQYGAQVTITGRDAAALESVAKRIEAESGHQPLQIVGNLLDQSLPAKLIDGTISKYGRLDFLVNNAGFSTQHRDIHDEKLMEAFDQVYGLNVRAVVQLSQLAATHLEKSKGNIINISSNLSMMPVHIIYSSSKAALDMITKTMAMEFGKKGVRVNSINPGPVATQFMRSLGMPVTFLKENEEFVKELTLLKFVAQPVEIANLASFLASDDARNMTGSIVVNDTGSLLAPRVDFKKLDEIKKK
B3: A019: house dust mite protein; SEQ ID NO: 1 (Der f), 4 (Der p), 315 (Blo t) (protein)
chain: QVYCNGAAIVSAARSQIGVPYSWGGGGIHGKSRGIGEGANTVGFDCSGLAQYSVYQGTHKVLARVASGQYSDPKCHHVAYGSHQPGDLVFFGNPIHHVGIVSAHGRMINAPHTGTNVREENIWSDHIANVARCW
B4: A018: house dust mite protein; SEQ ID NO: 5 (Der f), 6 (Der p), 314 (Blo t) (protein)
chain: MVKAVVVLKGDPNVSGTIFFEQQDNGPVKVTGSVQGLKPGLHGFHVHEFGDNTNGCTSAGAHYNPLNKTHGAPNDEERHVGDLGNIEANDKGVANVVIEDSLISLTGEKSIVGRSLVVHADPDDLGRGGHELSKTTGNAGGRLVCGVIGVTK

Key:
Assay type in all cases: cell-based, human
[1] = system: basophils in whole blood from HDM allergic donors; assay: Basophil Activation Test (BAT); settings: blood from HDM allergic individuals (n=14)
Protocol: Basophil Activation Test (BAT) was used as a predictive in vitro assay for indication of safety/immediate hypersensitivity reactions. The BAT assay is a widely used diagnostic test that is also used for evaluation of allergenicity of allergen derived components. In short: whole blood from HDM allergic donors was stimulated for 1 h with the proteins, and the increased expression of activation markers on the surface of basophils were measured by flow cytometry. The BAT test was carried out using different concentrations of the proteins and the allergens Der p 2 and Der p 1 was used as controls and tested in the same concentration rates.
(§1) This example relates to the further testing of immunogenicity of the proteins identified in Example 1. Their ability to react with IgE antibodies in HDM allergic individuals, to stimulate in vitro T cell proliferation of HDM allergic individuals and non-allergics, and to stimulate ex vivo cytokine production of HDM allergic individuals and non-allergics. The following tests were used: • Basophil Activation Test (BAT) was used as a predictive in vitro assay for indication of safety/immediate hypersensitivity reactions. BAT test was carried out using blood from HDM allergic individuals (n=14), and by use of different concentrations of test proteins or the major house dust mite allergens (Der p 1, Der f 1, Der p 2 or Der f 2, e.g. a concentration of 1, 10, 100 or 1000 ng/ml. • In vitro T cell reactivity determined in T cell lines obtained from HDM allergic individuals (n=30) and non-allergics (n=8): Determined by establishment of HDM specific T-cell lines according to standard methods. In short, PMBCs from HDM allergic donors were cultured for 3 weeks in the presence of house dust mite allergen extract. The responses to proteins at a concentration of 0.5 ug/ml or 2 ug/ml of the test protein or the major house dust mite allergens (Der p 1, Der f 1, Der p 2 or Der f 2) were assessed by proliferation in a standard 72 h T cell proliferation assay, as described in Henmar H et al., Clin Exp Immunol 2008; 153(3):316-23. […]. • Ex vivo stimulation of PBMC cells obtained from mite allergic patients (n=16) and non-allergics (n=6): Determined by measuring the production of the cytokines; IFN-gamma, IL-9, IL-10, IL-17 and IL-31 following stimulation with test protein in concentration up to 10 ug/ml. Freshly isolated PBMC 5×10^6/ml were cultured with a test protein for 5 days and cell supernatant were harvested and stored at −80° C. Cytokines of the supernatants were measured using ProcartaPlex Multiplex Immunoassays with MAGPIX Multiplex Reader according manufactory protocol.

[2] = system: T cell lines obtained from HDM allergic individuals and non-allergics; assay: In vitro T cell proliferation test in T cell lines (Example 3); settings: 0.5 or 2 ug/ml, 72 h; for % responders of in-vitro T cell proliferation test, Allergic: T cell lines from HDM allergic individuals (n=30); for % responders of in-vitro T cell proliferation test, Non-allergics: T cell lines from non-allergics (n=8)
From the text: as §1

[3] = system: PBMC cells obtained from mite allergic patients and non-allergics; assay: Ex vivo stimulation of PBMC: cytokine production (IFN-gamma, IL-9, IL-10, IL-17, IL-31)
From the text: as §1

| Molecule | # of individuals of 14 with positive BAT test ([1]; 1 ng/ml) | # of individuals of 14 with positive BAT test ([1]; 10 ng/ml) | # of individuals of 14 with positive BAT test ([1]; 100 ng/ml) | # of individuals of 14 with positive BAT test ([1]; 1000 ng/ml) | % responders of in-vitro T cell proliferation test, Allergic [2] | % responders of in-vitro T cell proliferation test, Non-allergics [2] | % HDM allergic individuals with cytokine production in ex-vivo T cell assay IL-5 [3] | % HDM allergic individuals with cytokine production in ex-vivo T cell assay IL-9 [3] | % HDM allergic individuals with cytokine production in ex-vivo T cell assay IL-10 [3] | % HDM allergic individuals with cytokine production in ex-vivo T cell assay IL-13 [3] | % HDM allergic individuals with cytokine production in ex-vivo T cell assay IL-17 [3] | % HDM allergic individuals with cytokine production in ex-vivo T cell assay IL-31 [3] | % HDM allergic individuals with cytokine production in ex-vivo T cell assay INF-g [3] | % non-allergic individuals with cytokine production in ex-vivo T cell assay IL-5 [3] | % non-allergic individuals with cytokine production in ex-vivo T cell assay IL-9 [3] | % non-allergic individuals with cytokine production in ex-vivo T cell assay IL-10 [3] | % non-allergic individuals with cytokine production in ex-vivo T cell assay IL-13 [3] | % non-allergic individuals with cytokine production in ex-vivo T cell assay IL-17 [3] | % non-allergic individuals with cytokine production in ex-vivo T cell assay IL-31 [3] | % non-allergic individuals with cytokine production in ex-vivo T cell assay INF-g [3] |
| --- | --- | --- | --- | --- | --- | --- | --- | --- | --- | --- | --- | --- | --- | --- | --- | --- | --- | --- | --- | --- |
| B1 | 0 | 1 | 1 | 1 | 18% | 25% | 6% | 0% | 25% | 6% | 6% | 0% | 0% | 0% | 0% | 0% | 0% | 0% | 0% | 17% |
| B2 | 0 | 0 | 0 | 0 | 7% | 0% | 0% | 0% | 25% | 0% | 13% | 0% | 6% | 0% | 0% | 33% | 0% | 17% | 0% | 0% |
| B3 | 2 | 2 | 2 | 4 | 39% | 13% | 38% | 56% | 75% | 56% | 100% | 13% | 50% | 0% | 0% | 100% | 0% | 100% | 17% | 100% |
| B4 | 0 | 0 | 0 | 0 | 0% | 0% | 0% | 6% | 56% | 13% | 44% | 6% | 19% | 0% | 0% | 67% | 17% | 83% | 0% | 33% |
